Data on one molecule can be found in paper PMC5134462, “Electrochemical Aptasensor for Myoglobin-Specific Recognition Based on Porphyrin Functionalized Graphene-Conjugated Gold Nanocomposites”.

The target of the data set is T1, myoglobin (human, UniProt P02144 2-154).
T1 sequence: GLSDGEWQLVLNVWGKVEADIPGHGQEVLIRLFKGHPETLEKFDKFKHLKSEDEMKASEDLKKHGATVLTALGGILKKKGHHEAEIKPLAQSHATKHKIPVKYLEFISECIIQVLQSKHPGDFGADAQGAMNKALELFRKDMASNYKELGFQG
Briefly: electrochemical aptasensor (DPV); aptamer immobilized on TCPP-Gr/AuNPs/GCE; 45 min incubation; 1.47e-10 M myoglobin; LOD 6.7e-12 M, linear 2.0e-11 to 7.7e-7 M (not Kd); Aptamer dissolved in T-buffer: 20 mM Tris-HCl, 0.10 M NaCl, 5.0 mM MgCl2, 10 mM TCEP, pH 7.4; binding buffer and temperature not given in the material. The conditions noted are these: protein: native; label: ferrocene (3').

For CCCTCCTTTCCTTCGACGTAGATCTGCTGCGTTGTTCCGA (ssDNA, 5' SH-(CH2)6; 3' ferrocene (Fc)) [MbBA (myoglobin-binding aptamer)], the binding result is reported as “binds”.
